Measurements: the nanobody polyreactivity screen of Harvey et al. (2022)

assay: yeast display, Sf9 membrane polyspecificity reagent, FACS + sequencing; frameworks hold sequencing errors
Method in brief: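 Sorting gates, low and high (top ~1%), were placed on anti-HA fluorescence to track expression and on streptavidin fluorescence to track reagent binding. A clone's polyreactivity label is taken from the gate it came out of. The reagent was 10% biotinylated, detergent-solubilized Sf9 membrane, applied for 1 hour at 4 °C to galactose-induced yeast display cells.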

Sequence	polyreactivity (PSR sort gate)
HVQLVESGGGLVQAGGSLRLSCAASGSIFVYNAMGWFRPAPGKERELVAGITFIGGSTYYADSVKGRFTISRDNAKNTVYLHMNSLKPVDNAVSYCATQEDWEDDWGQGTKVTVSS	low polyreactivity
QVQLVESGGGLVQAGGSLRLSCAASGLIFNNYAMGWYRQAPGKERELVATISRTGTSTYYADSVKGRFTISRDNAKNTVYLQMNSLKPEDTAVYYCNAVIQLFEWGWDDEYDYWGQGTQVTVSS	low polyreactivity
QVQLVESGGGLVQAGGSLRLSCADSGFIFTVNAMGLYRQAPGKERELVAAITSGGNTYYADSVKGRFTISRDNAKNTVYLQMNSLKPEDAAVYYCNAVFYTWSPYGTTVRSYGYWGQGTQVTVSS	high polyreactivity
QVQLVESGGGLVQAGGSLRLSCAASGRIFGWYAMGGYRQAPGKERELVAAITSGGRTKYADSVKGRLTISRDNAKNTVYLQMNSLKPEDTAVYYCAARPQISSFDGLYYWGQGTQVTVSS	high polyreactivity
QVQLVESGGGLVQAGGSLRLSCAASGSTFIRYAMGWYRQAPGKERELVAAISSGGGNTYYADSVKGRFTISRDNAKNTVYLQMDSLKPEDTAVYYCAARYLAYGPTGYLYGYNYWGQGTQVTVSS	high polyreactivity
QVQLVESGGGLVQAGGSLRLSCAASGSIFAVNTMGWYIQAPGKERELVAAISQRGSSTYYADSVKGRFTISRDNAKNTVYLQMNSLKPEDTAVYYCAKRFIYGRYNYWGQGTQVTVSS	high polyreactivity
QVQLVESGGGLVQAGGSLRLSCAASGFTFRYYAMGWYRQAPGKERELVAAISARGTSTYYADSVKGRFTISRDNAKITVYLQMNSLKPEDTAVYYCAARYGLYPARGYDYWGQGTQVSVSS	high polyreactivity
QVQLVESGGGLVQAGGSLRLSCAASVRTSGRYAMGWYRQAPGKERELVAAISWSGGSTYYADSVQGRFTSSRDNAKNTVYLQMNSLKPEDTAVYYCNAQHALGYYYWGQGTQVTVSS	low polyreactivity
KVQLVEKGGGLVQAGGSLRLSSAASGLNFTIYSMGWYRQEPGKERELVATISQGGGSTYADSVKGRFTISRDNAKNTVYLQMNSLKPEDTAVYYCNAKVVWYYLYDYWGQGTQVTVSS	low polyreactivity
QVQLVESGGGLVQAGGSLRLSCAASGSTLAPYVKGWYRQAPGKERELVAVISTRTGRTYYADSVKGRFTISRDNAKNTVYLQMNSLKPEDTAVYYCAAPVYPYQVQTYDYWGQGTQVTVSS	high polyreactivity
QVQLVESGGGLVQAGGSLRLSCAASGLTFYEDVLGWYRQAPGKERELVAAISYSGGRTYYADSVQGRFTISRDNAKNTVYLQMNSLKPEDTAVYYSAAQSRYAGKFYYWGQGTQVTVSS	high polyreactivity
QVQLVESGGGLVQAGRSLRLSCAASGRTMNGNAMGWYRQAPGKERELVAAITRGGSTYYADSVKGRFTISRDNEKNSVYLQMYSLKPEVTAVYYCAADARYTGYYYWGQGTQVTVSS	high polyreactivity
QVQLVESGGGLVQAGGSLRLSCAASGITFVRNTMGWYRQAPGKERELVAAISKSGDNTYYADSVKGRFTISRDNAKNTVYLQMNSLKPEDTAVYYCNKAYRKFYYGYDYWGQGTQVTVSS	high polyreactivity
QVQIVESGGGLVQAGGSLRLSCAASGYIVRNAMGWYRQAPGKERELVAAISRRGGRTYYADSVKGRFTISRDNAKNTVYLQMHSLKPEDTAVYYCNKLPGTPRSLATGDYWGQGTQVTVSS	high polyreactivity
QVQLVESGGGLVQAGGSLRLICAASGSIFDRYAMGWYRPAPGKDRELVAAITGSGGSTYYADSVKGRFRISRDNAKNTVYLQMNSLKPEDTAVYYGNARARGAYVRYGYWGQGTQVTVSS	high polyreactivity
QVQLVDSGGGLVQAGGSLRLSCAASGNTFGINDMGWYRKAPGKERELVAAIRISGGSTYYADSVKGRFTISRDNAKNTVYLQMNSLKPEDTAVYYCAKYGPRASLYRTGRYYWGQGTQVTVSS	high polyreactivity
QVQLVESGGGLVQAGGSLRLSCAASGRIFDNYVMGWYRQAPGKERELVAAITWDGTSTYYADSVKGRFTISRDNAKNTVYLQMNSLKPEDTAVYYCAADFYPYSWEEVDYWGQGTQVTVSS	low polyreactivity
